Measured values reported in patent publication US20190127457A1.

Molecular target: human neonatal Fc-receptor (FcRn) (human) (UniProt P55899)
Assay: FcRn affinity chromatography

human neonatal Fc-receptor (FcRn) (human), sequence (P55899 24-297 limits assumed, chain 1 of 2): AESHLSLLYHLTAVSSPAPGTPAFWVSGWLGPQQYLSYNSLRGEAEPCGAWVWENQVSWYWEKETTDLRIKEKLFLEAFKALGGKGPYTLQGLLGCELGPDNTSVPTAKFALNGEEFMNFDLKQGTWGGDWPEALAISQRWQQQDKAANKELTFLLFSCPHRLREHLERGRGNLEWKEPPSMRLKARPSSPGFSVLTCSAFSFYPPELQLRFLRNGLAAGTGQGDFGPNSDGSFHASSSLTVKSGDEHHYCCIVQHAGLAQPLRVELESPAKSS
human neonatal Fc-receptor (FcRn) (human), sequence (P61769 21-119 limits assumed, chain 2 of 2, further chain): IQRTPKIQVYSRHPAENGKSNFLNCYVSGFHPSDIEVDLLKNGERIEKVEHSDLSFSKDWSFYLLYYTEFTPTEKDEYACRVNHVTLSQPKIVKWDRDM

Substance	FcRn-affinity column retention time [min]	RT [min] (retention time on the FcRn affinity column)
IgG1 Fc-region with L234A/L235A/P329G and Y436A (symmetric)	41.3	–
bispecific antibody (knobs-into-holes), first chain with I253A/H310A/H435A and second chain with H310A	–	0
bispecific antibody (knobs-into-holes), first chain with I253A/H310A/H435A and second chain with H435A	–	0
bispecific antibody (knobs-into-holes), first chain with I253A/H310A/H435A and second chain with I253A/H310A/H435A	–	0

Molecular target: human neonatal Fc-receptor (FcRn) (human) (UniProt P55899)
Assay: FcRn affinity chromatography, symmetrically modified anti-HER2 antibody

Substance	retention time [min]
anti-HER2 antibody, E258H (symmetric)	45.6
anti-HER2 antibody, K288E (symmetric)	45.2
anti-HER2 antibody, K290H (symmetric)	46.2
anti-HER2 antibody, L309H (symmetric)	45.5
anti-HER2 antibody, N434H (symmetric)	52
anti-HER2 antibody, R255D (symmetric)	41.4
